These results are taken from publication PMC2919855 (Biochemistry, 2010).

Non-standard residues stand in square brackets, D forms with d. Residues, ends and D or L forms follow the SMILES beside them. No end group written: not given here. *: point of attachment. Proxyl = 3-carboxy-2,2,5,5-tetramethylpyrrolidinyloxy spin label; TOAC = CC1(C)CC(N)(C(=O)O)CC(C)(C)N1[O]; X1 = CC1(C)CC(C(=O)*)C(C)(C)N1[O]; Aib = CC(C)(N)C(=O)O

Experiment [1] deals with rhodopsin in rod outer segment (ROS) membranes (UniProt P02699). Kind of experiment: EPR spectroscopy.
Chain of rhodopsin in rod outer segment (ROS) membranes (P02699 whole entry): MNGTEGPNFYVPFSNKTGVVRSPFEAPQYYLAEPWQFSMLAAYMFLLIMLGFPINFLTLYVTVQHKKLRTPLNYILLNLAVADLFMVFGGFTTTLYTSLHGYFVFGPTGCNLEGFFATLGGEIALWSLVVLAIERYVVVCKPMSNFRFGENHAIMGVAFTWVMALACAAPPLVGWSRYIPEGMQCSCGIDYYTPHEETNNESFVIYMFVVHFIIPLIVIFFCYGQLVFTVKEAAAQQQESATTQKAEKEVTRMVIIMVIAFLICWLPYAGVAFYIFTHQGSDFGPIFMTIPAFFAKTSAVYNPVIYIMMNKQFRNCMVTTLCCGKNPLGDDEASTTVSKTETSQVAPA
Experiment [2] has as its target T1, rhodopsin in rod outer segments (ROS) (Bos taurus, UniProt P02699). Kind of experiment: Meta II. It counts as biochemical. The conditions noted are these: result in words.
The target of experiment [3] is rhodopsin in rod outer segment (ROS) membranes (UniProt P02699). Put plainly: Meta II stabilization assay.
Experiment [4] has the same target. Kind of experiment: time-resolved EPR after a laser flash.
For experiment [5], the target named is T1, rhodopsin in rod outer segments (ROS). Conditions: cited from earlier work.
For experiment [6], the target named is photoactivated rhodopsin (R*) in ROS membranes (Bos taurus, UniProt P02699). Kind of experiment: Direct binding by EPR: spectral integration of bound and free peptide components.
Chain of photoactivated rhodopsin (R*) in ROS membranes (P02699 whole entry): as above

T1 sequence (P02699 whole entry): as above

As to “Proxyl-Gtα(340–350) high-affinity peptide”, in experiment [1], the Kd – broadly, a measure of binding affinity in units of concentration – was 4 µM.
Take “Proxyl-Gtα(340–350): Gtα(340–350) with Proxyl spin label at the amino terminus (Proxyl-IKENLKDCGLF)”: the “ability to stabilize the MII state of rhodopsin” value (from here on “ability”) in experiment [2] is given as “retained the ability to stabilize the MII state”.
Consider “TOAC^343-Gtα(340–350) high-affinity peptide”, for which the Kd is 10 µM in experiment [3] and 12.5 µM in experiment [1]. Further, the lifetime of binding after the flash (single exponential) in experiment [4] turned out to be 5.8 ms.
Turning to [Aib]K[Aib][Aib]LKDCGLG, in experiment [5], the “activity in stabilization of the MII state of rhodopsin” value was “full activity”.
In experiment [6], `CC(C)C[C@H](NC(=O)[C@H](CC(=O)O)NC(=O)[C@H](CCC(=O)O)NC(=O)[C@H](CC(C)C)NC(=O)[C@@H](NC(=O)C1CC(C)(C)N([O])C1(C)C)C(C)C)C(=O)N[C@@H](CCCCN)C(=O)N[C@@H](CO)C(=O)N[C@@H](CS)C(=O)NC1(C(=O)N[C@@H](CC(C)C)C(=O)N[C@@H](Cc2ccccc2)C(=O)O)CC(C)(C)N([O])C(C)(C)C1` (stereo partly drawn) [Proxyl/TOAC^348-Gtα(340–350)] (X1-VLEDLKSC[TOAC]LF-OH) had a Kd of 65 µM. In addition, the “ability” value in experiment [2] is on record as “retained the ability to stabilize the MII state”.
With “IKE-TOAC-LKDCGLF [TOAC^343-Gtα(340–350)]”, the “ability” value in experiment [2] is “retained the ability to stabilize the MII state”.
